The text below walks through data of patent JP2023550785A.

Experiment [1] addresses SARS-CoV-2 (BetaCoV/Wuhan-Hu-1/2019) prefusion-stabilized spike (S) protein / S ectodomain trimer (SARS-CoV-2 (BetaCoV/Wuhan-Hu-1/2019)) (UniProt P0DTC2). As to the kind of experiment: SPR (Biacore T200), S ectodomain trimer captured, Fab as analyte. In general terms: Surface plasmon resonance follows binding to a sensor surface in real time, without labels.
Experiment [2] shares this target.

Like-named read-outs stand apart in the source and are kept apart here.

Chain of antibody S2P6 (antibody 420 1 1), human monoclonal antibody expressed as recombinant human IgG1 (VH): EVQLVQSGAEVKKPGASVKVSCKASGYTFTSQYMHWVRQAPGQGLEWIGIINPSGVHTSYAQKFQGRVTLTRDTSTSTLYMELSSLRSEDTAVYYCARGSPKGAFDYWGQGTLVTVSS
Chain of antibody S2P6 (antibody 420 1 1), human monoclonal antibody expressed as recombinant human IgG1 (VL): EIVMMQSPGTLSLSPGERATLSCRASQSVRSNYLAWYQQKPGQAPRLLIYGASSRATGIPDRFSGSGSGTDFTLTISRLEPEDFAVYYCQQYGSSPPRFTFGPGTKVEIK
Chain of S2P6 Fab fragment (VH): as the sequence (VH) above
Chain of S2P6 Fab fragment (VL): as the sequence (VL) above

As usually defined, the Kd is the concentration at which binding is half-saturated. Consider S2P6 Fab fragment, for which the Kd in experiment [1] was 7 nM.
Usually koff stands for the first-order rate constant of dissociation. A low value points to a long-lived complex. In general, kon refers to the rate constant with which the complex forms. Low readings indicate slower complex formation, high ones faster complex formation. As to “antibody S2P6 (antibody 420 1 1), human monoclonal antibody expressed as recombinant human IgG1”, in experiment [2], the Kd is less than 0.001 nM, the koff was less than 1e-07 s⁻¹ and the association rate constant (kon) worked out at 453000 M⁻¹ s⁻¹.
